The source of these data is PMC5772613, “Phosphorylation induced cochaperone unfolding promotes kinase recruitment and client class-specific Hsp90 phosphorylation” (Nature Communications, 2018).

B1: Full-length human Cdc37 [human] / Catalytic domain of bRaf [not stated] (parent complex)
chain 1: MVDYSVWDHIEVSDDEDETHPNIDTASLFRWRHQARVERMEQFQKEKEELDRGCRECKRKVAECQRKLKELEVAEGGKAELERLQAEAQQLRKEERSWEQKLEEMRKKEKSMPWNVDTLSKDGFSKSMVNTKPEKTEEDSEEVREQKHKTFVEKYEKQIKHFGMLRRWDDSQKYLSDNVHLVCEETANYLVIWCIDLEVEEKCALMEQVAHQTIVMQFILELAKSLKVDPRACFRQFFTKIKTADRQYMEGFNDELEAFKERVRGRAKLRIEKAMKEYEEEERKKRLGPGGLDPVEVYESLPEELQKCFDVKDVQMLQDAISKMDPTDAKYHMQRCIDSGLWVPNSKASEAKEGEEAGPGDPLLEAVPKTGDEKDVSV
chain 2: ITVGQRIGSGSFGTVYKGKWHGDVAVKMLNVTAPTPQQLQAFKNEVGVLRKTRHVNILLFMGYSTKPQLAIVTQWCEGSSLYHHLHIIETKFEMIKLIDIARQTAQGMDYLHAKSIIHRDLKSNNIFLHEDLTVKIGDFGLATVKSRWSGSHQFEQLSGSILWMAPEVIRMQDKNPYSFQSDVYAFGIVLYELMTGQLPYSNINNRDQIIFMVGRGYLSPDLSKVRSNCPKAMKRLMAECLKKKRDERPLFPQILASIELL

In this experiment the parent is B1. The experiment in a line: ITC; read off a plot.
Turning to chain 1 MVDYSVWDHIEVSDDEDETHPNIDTASLFRWRHQARVERMEQFQKEKEELDRGCRECKRKVAECQRKLKELEVAEGGKAELERLQAEAQQLRKEERSWEQKLEEMRKKEKSMPWNVDTLSKDGFSKSMVNTKPEKTEEDSEEVREQKHKTFVEKYEKQIKHFGMLRRWDDSQKYLSDNVHLVCEETANYLVIWCIDLEVEEKCALMEQVAHQTIVMQFILELAKSLKVDPRACFRQFFTKIKTADRQYMEGFNDELEAFKERVRGRAKLRIEKAMKEYEEEERKKRLGPGGLDPVEVEESLPEELQKCFDVKDVQMLQDAISKMDPTDAKYHMQRCIDSGLWVPNSKASEAKEGEEAGPGDPLLEAVPKTGDEKDVSV [chain 1 Y298E], the dissociation constant Kd was ~1900 nM.

As for chain 1 MVDESVWDHIEVSDDEDETHPNIDTASLFRWRHQARVERMEQFQKEKEELDRGCRECKRKVAECQRKLKELEVAEGGKAELERLQAEAQQLRKEERSWEQKLEEMRKKEKSMPWNVDTLSKDGFSKSMVNTKPEKTEEDSEEVREQKHKTFVEKYEKQIKHFGMLRRWDDSQKYLSDNVHLVCEETANYLVIWCIDLEVEEKCALMEQVAHQTIVMQFILELAKSLKVDPRACFRQFFTKIKTADRQYMEGFNDELEAFKERVRGRAKLRIEKAMKEYEEEERKKRLGPGGLDPVEVYESLPEELQKCFDVKDVQMLQDAISKMDPTDAKYHMQRCIDSGLWVPNSKASEAKEGEEAGPGDPLLEAVPKTGDEKDVSV [chain 1 Y4E], the Kd was ~1000 nM.

Regarding chain 1 MVDESVWDHIEVSDDEDETHPNIDTASLFRWRHQARVERMEQFQKEKEELDRGCRECKRKVAECQRKLKELEVAEGGKAELERLQAEAQQLRKEERSWEQKLEEMRKKEKSMPWNVDTLSKDGFSKSMVNTKPEKTEEDSEEVREQKHKTFVEKYEKQIKHFGMLRRWDDSQKYLSDNVHLVCEETANYLVIWCIDLEVEEKCALMEQVAHQTIVMQFILELAKSLKVDPRACFRQFFTKIKTADRQYMEGFNDELEAFKERVRGRAKLRIEKAMKEYEEEERKKRLGPGGLDPVEVEESLPEELQKCFDVKDVQMLQDAISKMDPTDAKYHMQRCIDSGLWVPNSKASEAKEGEEAGPGDPLLEAVPKTGDEKDVSV [chain 1 Y4E, chain 1 Y298E], the Kd is ~2100 nM.
